Measurements as given in patent publication US20140162947A1.

What was measured:
Experiment in all cases: cell-based or functional assay
[1] = target: CCR7 (mouse) (UniProt P47774)
[2] = target: CXCR3 (mouse) (UniProt O88410)
[3] = target: CXCR4 (mouse) (UniProt P70658)
Chain of UniProt P70658 (P70658 whole entry): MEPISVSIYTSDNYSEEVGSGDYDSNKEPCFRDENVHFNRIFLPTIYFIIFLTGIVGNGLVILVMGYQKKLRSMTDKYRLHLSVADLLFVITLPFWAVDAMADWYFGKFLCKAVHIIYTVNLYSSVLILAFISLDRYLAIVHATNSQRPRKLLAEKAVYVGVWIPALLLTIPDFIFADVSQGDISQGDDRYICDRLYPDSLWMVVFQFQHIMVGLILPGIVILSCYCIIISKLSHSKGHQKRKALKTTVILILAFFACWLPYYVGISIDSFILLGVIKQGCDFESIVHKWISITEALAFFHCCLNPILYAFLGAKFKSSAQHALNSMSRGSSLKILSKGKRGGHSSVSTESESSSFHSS

Chain of UniProt O88410 (O88410 whole entry): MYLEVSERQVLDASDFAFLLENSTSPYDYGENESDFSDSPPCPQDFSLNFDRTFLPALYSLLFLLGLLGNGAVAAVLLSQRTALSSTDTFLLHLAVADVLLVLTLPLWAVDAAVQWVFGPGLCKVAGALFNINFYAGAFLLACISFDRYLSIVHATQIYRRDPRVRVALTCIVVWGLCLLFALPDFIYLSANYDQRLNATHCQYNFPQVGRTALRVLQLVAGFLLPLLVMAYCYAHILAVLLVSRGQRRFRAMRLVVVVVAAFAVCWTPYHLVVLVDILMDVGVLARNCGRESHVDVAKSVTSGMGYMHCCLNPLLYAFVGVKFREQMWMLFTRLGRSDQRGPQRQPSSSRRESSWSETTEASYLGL
Chain of UniProt P47774 (P47774 25-378): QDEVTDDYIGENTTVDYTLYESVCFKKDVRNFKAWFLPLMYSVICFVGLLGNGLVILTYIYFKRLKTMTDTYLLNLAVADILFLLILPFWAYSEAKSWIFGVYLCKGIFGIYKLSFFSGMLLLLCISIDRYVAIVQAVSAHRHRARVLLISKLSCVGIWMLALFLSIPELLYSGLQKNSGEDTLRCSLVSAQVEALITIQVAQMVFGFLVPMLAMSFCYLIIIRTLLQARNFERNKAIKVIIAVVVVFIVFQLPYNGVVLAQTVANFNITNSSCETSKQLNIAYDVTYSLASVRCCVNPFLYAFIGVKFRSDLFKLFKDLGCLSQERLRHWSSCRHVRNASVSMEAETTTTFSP

Substance CCL21 (ligand) has a migration of WT GMP- and CMP-derived PACs in a transwell Boyden chamber, fold over BSA control [1] of 4 fold.
In the case of CXCL10 (ligand), the migration of WT GMP- and CMP-derived PACs in a transwell Boyden chamber, fold over BSA control [2] is reported as 4 fold.
SDF-1α (ligand) was tested, and the migration of WT CMP-derived PACs in a transwell Boyden chamber, fold over BSA control [3] was 23 fold and the migration of WT GMP-derived PACs in a transwell Boyden chamber, fold over BSA control [3] was 19 fold.
